From the RNAGym collection of RNA variant scans (doi:10.1073/pnas.2313332121)
This sample holds only a part of the variants without activity.

B1: TPR 5TU (parent)
chain: GGAUCUUCUCGAUCUAACAAAAAAGACAAAUCUGCCACAAAGCUUGAGAGCAUCUUCGGAUGCAGAGGCGGCAGCCUUCGGUGGCGCGAUAGCGCCAACGUUCUCAACUAUGACACGCAAAACGCGUGCUCCGUUGAAUGGAGUUUAUCAUG

Variants of: B1
Assay: polymerase ribozyme fitness, log enrichment relative to wild type (log ratio); higher = more active; in vitro selection for triplet polymerase activity
Outline: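 In triplicate, a single round of in vitro selection was run on each mutant library, PCR-built and transcribed, covering one subunit of a heterodimeric triplet polymerase ribozyme. Frozen incubation at −7 °C followed annealing with a biotinylated primer, partner subunit and triplets, and extended constructs were then gel-excised, streptavidin-captured and taken through RT-PCR. Fitness is the logarithm of genotype enrichment over wild-type enrichment, from inverse-variance-weighted replicate averages of Illumina-sequenced inputs and outputs. […] only genotypes with ≥10 input reads and ≥1 read per output were kept.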

Row | Variant | polymerase ribozyme fitness (log ratio)
1 | U53A C85G | -3.15
2 | C18A C38A A47C C93A A98U | -3.69
3 | C72U U77C C118G | ≤ -4.2
4 | C54G A66U A137G | ≤ -4.2
5 | A41G C54U | 0.979
6 | A19U G80U | -0.442
7 | A26U U44A C93A A142C | ≤ -4.2
8 | U13G A17U G88A C96G | ≤ -4.2
9 | A17G A20U G84A A97U A115C | -3.45
10 | A39U U104G | -3.71
11 | C85U C87U A150G | -1.59
12 | A21U A39G A52C G58A G80A G83U C85A C93A | ≤ -4.2
13 | C79U G143U | -4.12
14 | A30G A60C G67U G68U G84U G117A U139A | ≤ -4.2
15 | G50C G59C U102G | -2.34
16 | G48A C75G U78C | ≤ -4.2
17 | G126A U135C | -1.38
18 | A17U A20G C63G U134G | -3.43
19 | C10U C32G A39U U55A C95G C96A C149U | ≤ -4.2
20 | A41G C57A | 0.0695
21 | C57U G68A C75G C76G C87A A98U U145C | ≤ -4.2
22 | C18U C35A A39U G50U U55G C108U | ≤ -4.2
23 | A91G A115C | -3.57
24 | A20C G136C | -4.19

Row | Variant | polymerase ribozyme fitness (log ratio)
25 | A60G U144G | 1.35
26 | G46C A47U U53A C85U U130C A150G | ≤ -4.2
27 | G59C U139A | ≤ -4.2
28 | A21G A26U C87A C125G U135C U146C | ≤ -4.2
29 | A64G C76U | -3.62
30 | C5G G94C A122C | -1.03
31 | U31C U45G G46C G83U G94C A115U A119C A142U A150U | ≤ -4.2
32 | A20U U31C C116U A121U A150C | -3.57
33 | C5U C99U | 0.209
34 | A3U G83A A119G G141C | -1.17
35 | G59U C93U | -3.08
36 | G58A C63A | 0.255
37 | A41C G42U A73U G83U U102G G124C A150G | ≤ -4.2
38 | A91C U104A | ≤ -4.2
39 | U6C C38U A121U U127A G128U | -4.07
40 | A17U A30C C35A U55G U109A | -4.11
41 | U78A C87U A91G A98C A120C U130G G141A | ≤ -4.2
42 | U6G G50U G83C A120U | -0.29
43 | A41U C57G A120G | -2.19
44 | A21U C38U C63G G84U | -0.36
45 | U15A A28U G34A A47U C96U G117A | ≤ -4.2
46 | A64U C93U A138G | ≤ -4.2
47 | A17U U53A | -0.974
48 | U33G C96A | -1.72

Row | Variant | polymerase ribozyme fitness (log ratio)
49 | C54G G71C C85U C93U U144G | ≤ -4.2
50 | A22C C79A G83U A115G G141A | ≤ -4.2
51 | U56G A64C | ≤ -4.2
52 | U56A C85A A91G G128U | ≤ -4.2
53 | U55C G88A C96U | ≤ -4.2
54 | A24G A49C G92U A122C | ≤ -4.2
55 | A37U G59A | -0.836
56 | A19U A49U G71A C93U U102G C103G | ≤ -4.2
57 | U15A G46U A47C C72U G88U G94A C95G A97G C108G A115G | ≤ -4.2
58 | C32G C76A C99A | -4.15
59 | A28U A37C | -3.93
60 | U13G A19U C51U A97U | -2.04
61 | C57U U78A G84A C95U U135G | ≤ -4.2
62 | G58C C87U U135C | -2.22
63 | C14A C54G G62A G86U U101G G141U | ≤ -4.2
64 | G94A A137U | -3.87
65 | A22C C96U | -0.0389
66 | A52G U77G U82C A91G A106U G140A U144A G152U | ≤ -4.2
67 | A12G A20U C103A C116A A121U C129A | ≤ -4.2
68 | G83U U135A | -1.05
69 | A41C G59A C69A G84A A107U A137U | ≤ -4.2
70 | G11A C85U U130G | ≤ -4.2
71 | C38U G50U G80C C85U | ≤ -4.2
72 | A52G G74A A137U | ≤ -4.2

Row | Variant | polymerase ribozyme fitness (log ratio)
73 | A49C C76A C93U A113G G117A | ≤ -4.2
74 | A91G C96U | -3.04
75 | A21C A52C C57U A64C A66C G71U A91U G100A C103U U127G | ≤ -4.2
76 | U15G C38U A41C A52U G59U G65C G141A | ≤ -4.2
77 | U55A A91U C108A U130C G133U | ≤ -4.2
78 | C75U A97G C131U U135G | -3.18
79 | U56G U144A | -0.473
80 | G62C G68A U82G C93A A97G C118A G143U | ≤ -4.2
81 | U7A A37G A47C G59C C72U G84C G88A C108A G141C | ≤ -4.2
82 | U7A C93G | ≤ -4.2
83 | U56A C76U C125U U148G G152U | -3.64
84 | U56A G94A | -1.28
85 | A12G U13C C14A A41C A110U A119G G133A G140U U145G | ≤ -4.2
86 | U55G C57A G59C C85A A115G A119U | -2.01
87 | A39U A52U G83A U109G | ≤ -4.2
88 | A3C U9A A73U U144A C149G | ≤ -4.2
89 | C105G C132A | -3.96
90 | G59A C85A C95U C103U U134A | -3.2
91 | G81C A89C A98U A107U U144C | ≤ -4.2
92 | C35A C51U G59C A64G G83A | ≤ -4.2
93 | C8G G11U G50A C116G U146G | ≤ -4.2
94 | A41C C76A C85G C99A | ≤ -4.2
95 | C54G A122G U144G | -0.687
96 | G50U A122G U135A | -0.743

Row | Variant | polymerase ribozyme fitness (log ratio)
97 | G92A A147U | -1.84
98 | U13A C85U | -1.16
99 | G58C G88U C105A G141C U144G U146G | ≤ -4.2
100 | U53A U55A C129U | -3.06
101 | C36U C96G G117U G152A | -3.09
102 | A22G G48C G59A G83A | -4.06
103 | U9G C27U A41U G46C U90G C96G A119C A122C | ≤ -4.2
104 | G42C G80C G86U C118U A121G A150G | ≤ -4.2
105 | G48C G50A C54U C85A C129G | ≤ -4.2
106 | A16C A30U G58U A66U A73G | ≤ -4.2
107 | A16U A19U G80A U144G | -2.53
108 | C35U C85G | -2.73
109 | C57A G92C | -0.41
110 | C32A A52G U53A G65C C99U G143U | ≤ -4.2
111 | G62U C76U C85G | -2.1
112 | A52G G59A C75U | -0.737
113 | A113U U127C | -2.98
114 | C36A U56G C103G A142G G143C | ≤ -4.2
115 | A28G U44A U45A C76G U111C G133U | ≤ -4.2
116 | C96U U134C | -0.883
117 | G50U G83U G128C | -3.62
118 | G11A A41C G83C C123G | -2.58
119 | U101A C131U | 0.454
120 | C43A C93G G133A | ≤ -4.2

Row | Variant | polymerase ribozyme fitness (log ratio)
121 | A20U C85U | -1.3
122 | C5G G80A | 0.101
123 | U7A C51U | -3.25
124 | A17U C35U A40U G92U | -2.32
125 | U9C A119U | ≤ -4.2
126 | C57A C131G | -3.13
127 | G58U A66C U77G A91U C96G A97U | ≤ -4.2
128 | C14A U53A C87G | ≤ -4.2
129 | C14U C75G U101G U135A | ≤ -4.2
130 | A23C C35U G65A A66U C76A U78G | ≤ -4.2
131 | C85U C96A | -0.931
132 | A20G A41C C54G G83U C87G A98C C116G C132U | ≤ -4.2
133 | U127G G143A A147G | ≤ -4.2
134 | A39C G70C A97G | ≤ -4.2
135 | G62C G70A C79G G86C A142C C149U | ≤ -4.2
136 | A24G A28U U55A G140A | ≤ -4.2
137 | A21C U53A C54G C76G C103G G133U | ≤ -4.2
138 | C57A A73G | 0.866
139 | C8G G58A | -3.1
140 | U78C G83C G126A | -0.883
141 | A21C G50C | -1.92
142 | A41G U61A A113U | -2.93
143 | G11U C14G U127G | ≤ -4.2
144 | A21C A47C C96A G133C | -1.54

Row | Variant | polymerase ribozyme fitness (log ratio)
145 | A41C G58C G59C A113C U145A | -4.1
146 | A22C A30G A60G G68A C85A A91C G126A | ≤ -4.2
147 | C93A U127G | -4.05
148 | U4A A16U A17U A30C A39G A49U C87G A89C G133C U139C | ≤ -4.2
149 | G42C U56A C85U C95A U127C G143U | ≤ -4.2
150 | C8U C63U G80A G84C C96U | ≤ -4.2
151 | G50A U78A G84A G100C A137G | ≤ -4.2
152 | C57U G59A C75G A138G | -4.02
153 | C43U A49G G84C G140U U146G | ≤ -4.2
154 | A29G C54U G59A C76U U82C G88C C95G C96G | ≤ -4.2
155 | A3C C5A G11A U45A U55A G80A C96A | ≤ -4.2
156 | U82G C85G G92C C114A | ≤ -4.2
157 | A21U G50C U53A | -3.62
158 | A73U C96G A98U A120U A137G | -2.92
159 | U55G G59U G67C U77A C96G A119C U139A U148G | ≤ -4.2
160 | A16U A20G A37C C95G U102G A113U | ≤ -4.2
161 | A16U U55A | -2.64
162 | U82G A91U C114A A119U A121C G133C | ≤ -4.2
163 | A29U U77A C95G | ≤ -4.2
164 | C79A U90A G133U G143C | ≤ -4.2
165 | G136A | 0.579
166 | A28G U145C | ≤ -4.2
167 | A47C G50U G59A G70A C79U U82G C95U G124A U144G | ≤ -4.2
